# Experimental data: patent US8728787B2, “Fungal laccases and uses thereof” (Academia Sinica, priority 2010, dated 2014)
# B1: Lcc3: laccase purified from Cerrena sp. WR1, GenBank accession no. GQ899203; SEQ ID NO:3 mature, 9 precursor (protein)
# chain: AIGPVADLHITDANVSPDGFTRPAVLAGGTFPGPLITGKQGDNFQINVIDELTDATMLKSTSIHWHGIFQKGTNWADGPSFVNQCPITTGNSFLYDFSVPDQTGTYWYHSHLSTQYCDGLRGALVIYDDNDPHKDLYDVDDETTVITLADWYHTQARLITGVPVSDATLINGLGRYLNGPTDAPLAVITVDQGKRYRFRLVSISCDPNFVFSIDNHSMTVIEVDAVNSQPLVVDSIQIFAAQRYSFILNANQSVGNYWIRANPNLGNTGFTNGINSAILRYNGAPVAEPNTTQTASTNPLNEVNLHPLVPTPVPGTPQPGGVDVVQNLVLGFSGGKFTINGVAFSPPTVPVLLQILSGTTTAQDLLPTGSIIELPLGKTVELTLAAGVLGGPHPFHLHGHTFHVVRSAGQTTPNYVDPILRDTVNTGAAGDNVTIRFTTDNPGPWFLHCHIDWHLEAGFAVVFAEGLNQTNAANPTPDAWNNLCDLYNALPAGDQ
# modifications: Cerrena sp
# Tests used:
# [1] = Guaiacol oxidation (laccase kinetics, optimum temperature and pH); assay type: biochemical; settings: guaiacol as substrate
# Experimental: (§1) The effect of temperature on laccase activity was studied using the standard enzymatic activity assay described above under various reaction temperatures (i.e., 20-80° C.). For thermal stability study, the enzyme was pre-incubated in a 50 mM citric acid buffer (pH 3.0) at 50-80° C. for 0-180 min and the residual enzymatic activity was then determined.
# (§2) The effect of pH on the laccase activity was investigated at a pH range of 2.5-6.0. Four buffer systems were used in this study: 50 mM glycine-HCl buffer (pH 2.5), 50 mM citric acid buffer (pH 3.0-5.5), 50 mM sodium phosphate buffer (pH 6.0-8.0), and 50 mM glycine-NaOH buffer (pH 9.0-10). To determine the protein stability of laccase at a wide range of pH conditions, the enzyme (0.1 mg/mL in each reaction) was pre-incubated at pH 3.0-10 at 25° C. for 0-5 days and then the residual enzyme activity was determined.
# (§3) Kinetic parameters Km and Vmax were determined as follows. […] The oxidation reactions of guaiacol and 2,6-DMP were monitored by determining OD436 values (ε=6,400 M^−1cm^−1) and OD468 values (ε=49,600 M^−1 cm^−1), respectively. The kinetic parameters were determined by nonlinear regression analysis (ENZFITTER software program, Elsevier-Biosoft, Cambridge, UK) using the Michaelis-Menten model.
# (§4) To determine the effect of temperature on the enzyme activity, a standard enzymatic activity assay was performed under various temperatures (i.e., 30-90° C.). For thermal stability study, laccase was pre-incubated in a 50 mM citric acid buffer (pH 3.0) at 30-80° C. for 10-40 min and the residual enzymatic activity was then determined by the standard assay. See Example 1 above. Values of t1/2 were determined accordingly.
# (§5) The effect of pH on laccase activity was investigated at pH 2.0-6.0, using a glycine-HCl buffer (pH 2.0-2.5) or a citric acid buffer (pH 2.5-6.0). To determine protein stability in different pH conditions, the enzyme was pre-incubated at pH 2.5-4.5 at 25° C. for 0-2 h and the residual enzyme activity was determined by the standard enzymatic assay.
# (§6) Kinetic parameters were determined following conventional methods. See also Example 1 above.
# [2] = pH 3
# Experimental: Lignin degradation reaction was carried out by mixing a crude laccase broth (containing 100 U enzyme) with 50 ml reaction buffer (50 mM citric acid solution; pH 3.0) containing 100 mg smashed rice straw materials. The mixture was incubated at 30-80° C. for 20-60 min. Sodium azide was added to the mixture at a final concentration of 1 mM to stop the enzymatic reaction. The processed rice straw was collected by filtration and dried at 60° C. The lignin contents in the rice straw before and after treatment were determined following the method described in kappa number of ISO 302:2004 (International Organization for Standardization).
# The lignin degradation reaction and the dye decoloration reaction were carried out following the methods described in Example 1 above. […] See FIG. 9, pane A. The lignin degradation efficiencies were 22%-25% at 40-50° C. for 40 min and 32% at 40° C. for 60 min.
# [3] = Thermal denaturation by differential scanning calorimetry (DSC); assay type: physicochemical; settings: 10 mM sodium phosphate buffer (pH 6.0)
# Experimental: Thermal denaturation of laccase was determined by differential scanning calorimetry (DSC) using a Nano Differential Scanning calorimeter (N-DSC III) (TA Instruments, New Castle, Del.) at a heating rate of 1° C./min under a temperature from 30 to 95° C. and excess pressure of 3.0 atm. The protein concentration was 0.55 mg/ml in 10 mM sodium phosphate buffer (pH 6.0). Baseline corrections were performed and smoothed by subtracting a buffer thermogram. The data were then analyzed using the Launch NanoAnalyze Software (TA Instruments, New Castle, Del.), assuming a two-state unfolding model. See Pace et al., The Protein Structure: A Practical Approach; Creighton T. E., Ed.: IRL Press; Oxford U.K., pp. 311-330; 1989.
# [4] = ABTS oxidation assay (laccase activity, kinetics, effect of temperature and pH); assay type: biochemical
# Experimental: All chemicals used in this study were obtained from Merck (Darmstadt, Germany) or Sigma-Aldrich (St. Louis, Mo. USA). All spectrophotometric measurements were performed using the Beckman DU 640 spectrophotometer (Beckman Coulter, USA).
# as §1, §2, §3, §4, §5, §6
# [5] = Effect of organic solvents on laccase activity; assay type: biochemical; settings: ABTS
# Experimental: To test the effects of various organic solvents on laccase activity, the enzymatic assay described above was carried out in the presence of one of the organic solvents shown in Table 1 below at various concentrations (1%, 10% and 25%). A T. versicolor (Fluka) laccase was used as a reference enzyme in this study. The enzyme concentration used in this study was 0.2 mg/ml. […] Further, more than 80% laccase activity remained in the presence of 10% acetonitrile or dimethyl sulfoxide. […]
# [6] = pH stability: residual activity after pre-incubation at various pH; assay type: physicochemical
# Experimental: as §2, §5
molecule,measurement,setting,value
B1,optimal temperature,[1],70 °C
same,pH of maximal activity,[1],4.5
same,Optimum temperature,[1]; at pH 4.5,70 (at pH 4.5) ° C.
same,Specific activity,[1]; optimum temperature and pH,189.7 U/mg
same,highest lignin degradation efficiency per 100 U,[2],around 22.9%
same,midpoint temperature (Tm),[3],73.95 °C
same,optimal temperature,[4]; ABTS as substrate,50 °C
same,pH of maximal activity,[4]; ABTS as substrate,3.0
same,Optimum temperature,"[4]; ABTS as substrate, at pH 3.0",50 (at pH 3.0) ° C.
same,Specific activity,"[4]; ABTS as substrate, optimum temperature and pH",1013.5 U/mg
same,specific activity of the purified laccase,"[4]; at 30° C. and pH 3.0, ABTS","2,159.6 U/mg"
same,Relative activity,"[5]; Acetonitrile 1%, pH 3.0, 30° C.",92.7 ± 2.5%
same,Relative activity,"[5]; Acetonitrile 25%, pH 3.0, 30° C.",77.5 ± 3.2%
same,Relative activity,"[5]; Dimethyl sulfoxide 1%, pH 3.0, 30° C.",93.5 ± 1.4%
same,Relative activity,"[5]; Dimethyl sulfoxide 25%, pH 3.0, 30° C.",55.8 ± 1.7%
same,Relative activity,"[5]; Ethanol 1%, pH 3.0, 30° C.",94.5 ± 1.8%
same,Relative activity,"[5]; Ethanol 10%, pH 3.0, 30° C.",93.9 ± 4.0%
same,Relative activity,"[5]; Ethanol 25%, pH 3.0, 30° C.",84.8 ± 3.3%
same,Relative activity,"[5]; Methanol 1%, 50 mM citric acid buffer pH 3.0, 30° C.",93.0 ± 1.5%
same,Relative activity,"[5]; Methanol 10%, pH 3.0, 30° C.",85.5 ± 0.9%
same,Relative activity,"[5]; N,N-dimethylformamide 1%, pH 3.0, 30° C.",100 ± 0.9%
same,Relative activity,"[5]; N,N-dimethylformamide 10%, pH 3.0, 30° C.",98.4 ± 0.5%
same,stability at an acidic environment,[6]; pH 3.0-5.0,less stable
same,activity maintained,"[6]; pH 6-10, 63 hr incubation, 25° C.",about 100%
